Results from paper PMC3922351 (2007).
One block for each molecule: values may come before it.

Key:
FGFR1 (Homo sapiens) [1] = biological target: FGFR1 (Homo sapiens) (UniProt P11362); experiment: surface plasmon resonance; conditions: cited from earlier work
FGFR1 (Homo sapiens) [2] = biological target: FGFR1 (Homo sapiens) (UniProt P11362); experiment: surface plasmon resonance; conditions: cited from earlier work; remark: listed apart in the source
FGF2 (Homo sapiens) [3] = biological target: FGF2 (Homo sapiens) (UniProt P09038); experiment: SPR; conditions: cited from earlier work
Chain of FGF2 (Homo sapiens) (P09038 143-288): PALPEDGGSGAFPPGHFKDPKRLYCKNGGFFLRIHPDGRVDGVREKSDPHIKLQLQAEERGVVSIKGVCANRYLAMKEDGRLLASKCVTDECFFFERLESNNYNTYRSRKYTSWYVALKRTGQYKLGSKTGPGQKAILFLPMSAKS

FGF2 (Homo sapiens) [4] = biological target: FGF2 (Homo sapiens) (UniProt P09038); experiment: SPR; conditions: cited from earlier work; remark: listed apart in the source
[5] = biological target: low density lipoprotein receptor-related protein (LRP) (UniProt Q07954)
Chain of low density lipoprotein receptor-related protein (LRP) (Q07954 20-4544): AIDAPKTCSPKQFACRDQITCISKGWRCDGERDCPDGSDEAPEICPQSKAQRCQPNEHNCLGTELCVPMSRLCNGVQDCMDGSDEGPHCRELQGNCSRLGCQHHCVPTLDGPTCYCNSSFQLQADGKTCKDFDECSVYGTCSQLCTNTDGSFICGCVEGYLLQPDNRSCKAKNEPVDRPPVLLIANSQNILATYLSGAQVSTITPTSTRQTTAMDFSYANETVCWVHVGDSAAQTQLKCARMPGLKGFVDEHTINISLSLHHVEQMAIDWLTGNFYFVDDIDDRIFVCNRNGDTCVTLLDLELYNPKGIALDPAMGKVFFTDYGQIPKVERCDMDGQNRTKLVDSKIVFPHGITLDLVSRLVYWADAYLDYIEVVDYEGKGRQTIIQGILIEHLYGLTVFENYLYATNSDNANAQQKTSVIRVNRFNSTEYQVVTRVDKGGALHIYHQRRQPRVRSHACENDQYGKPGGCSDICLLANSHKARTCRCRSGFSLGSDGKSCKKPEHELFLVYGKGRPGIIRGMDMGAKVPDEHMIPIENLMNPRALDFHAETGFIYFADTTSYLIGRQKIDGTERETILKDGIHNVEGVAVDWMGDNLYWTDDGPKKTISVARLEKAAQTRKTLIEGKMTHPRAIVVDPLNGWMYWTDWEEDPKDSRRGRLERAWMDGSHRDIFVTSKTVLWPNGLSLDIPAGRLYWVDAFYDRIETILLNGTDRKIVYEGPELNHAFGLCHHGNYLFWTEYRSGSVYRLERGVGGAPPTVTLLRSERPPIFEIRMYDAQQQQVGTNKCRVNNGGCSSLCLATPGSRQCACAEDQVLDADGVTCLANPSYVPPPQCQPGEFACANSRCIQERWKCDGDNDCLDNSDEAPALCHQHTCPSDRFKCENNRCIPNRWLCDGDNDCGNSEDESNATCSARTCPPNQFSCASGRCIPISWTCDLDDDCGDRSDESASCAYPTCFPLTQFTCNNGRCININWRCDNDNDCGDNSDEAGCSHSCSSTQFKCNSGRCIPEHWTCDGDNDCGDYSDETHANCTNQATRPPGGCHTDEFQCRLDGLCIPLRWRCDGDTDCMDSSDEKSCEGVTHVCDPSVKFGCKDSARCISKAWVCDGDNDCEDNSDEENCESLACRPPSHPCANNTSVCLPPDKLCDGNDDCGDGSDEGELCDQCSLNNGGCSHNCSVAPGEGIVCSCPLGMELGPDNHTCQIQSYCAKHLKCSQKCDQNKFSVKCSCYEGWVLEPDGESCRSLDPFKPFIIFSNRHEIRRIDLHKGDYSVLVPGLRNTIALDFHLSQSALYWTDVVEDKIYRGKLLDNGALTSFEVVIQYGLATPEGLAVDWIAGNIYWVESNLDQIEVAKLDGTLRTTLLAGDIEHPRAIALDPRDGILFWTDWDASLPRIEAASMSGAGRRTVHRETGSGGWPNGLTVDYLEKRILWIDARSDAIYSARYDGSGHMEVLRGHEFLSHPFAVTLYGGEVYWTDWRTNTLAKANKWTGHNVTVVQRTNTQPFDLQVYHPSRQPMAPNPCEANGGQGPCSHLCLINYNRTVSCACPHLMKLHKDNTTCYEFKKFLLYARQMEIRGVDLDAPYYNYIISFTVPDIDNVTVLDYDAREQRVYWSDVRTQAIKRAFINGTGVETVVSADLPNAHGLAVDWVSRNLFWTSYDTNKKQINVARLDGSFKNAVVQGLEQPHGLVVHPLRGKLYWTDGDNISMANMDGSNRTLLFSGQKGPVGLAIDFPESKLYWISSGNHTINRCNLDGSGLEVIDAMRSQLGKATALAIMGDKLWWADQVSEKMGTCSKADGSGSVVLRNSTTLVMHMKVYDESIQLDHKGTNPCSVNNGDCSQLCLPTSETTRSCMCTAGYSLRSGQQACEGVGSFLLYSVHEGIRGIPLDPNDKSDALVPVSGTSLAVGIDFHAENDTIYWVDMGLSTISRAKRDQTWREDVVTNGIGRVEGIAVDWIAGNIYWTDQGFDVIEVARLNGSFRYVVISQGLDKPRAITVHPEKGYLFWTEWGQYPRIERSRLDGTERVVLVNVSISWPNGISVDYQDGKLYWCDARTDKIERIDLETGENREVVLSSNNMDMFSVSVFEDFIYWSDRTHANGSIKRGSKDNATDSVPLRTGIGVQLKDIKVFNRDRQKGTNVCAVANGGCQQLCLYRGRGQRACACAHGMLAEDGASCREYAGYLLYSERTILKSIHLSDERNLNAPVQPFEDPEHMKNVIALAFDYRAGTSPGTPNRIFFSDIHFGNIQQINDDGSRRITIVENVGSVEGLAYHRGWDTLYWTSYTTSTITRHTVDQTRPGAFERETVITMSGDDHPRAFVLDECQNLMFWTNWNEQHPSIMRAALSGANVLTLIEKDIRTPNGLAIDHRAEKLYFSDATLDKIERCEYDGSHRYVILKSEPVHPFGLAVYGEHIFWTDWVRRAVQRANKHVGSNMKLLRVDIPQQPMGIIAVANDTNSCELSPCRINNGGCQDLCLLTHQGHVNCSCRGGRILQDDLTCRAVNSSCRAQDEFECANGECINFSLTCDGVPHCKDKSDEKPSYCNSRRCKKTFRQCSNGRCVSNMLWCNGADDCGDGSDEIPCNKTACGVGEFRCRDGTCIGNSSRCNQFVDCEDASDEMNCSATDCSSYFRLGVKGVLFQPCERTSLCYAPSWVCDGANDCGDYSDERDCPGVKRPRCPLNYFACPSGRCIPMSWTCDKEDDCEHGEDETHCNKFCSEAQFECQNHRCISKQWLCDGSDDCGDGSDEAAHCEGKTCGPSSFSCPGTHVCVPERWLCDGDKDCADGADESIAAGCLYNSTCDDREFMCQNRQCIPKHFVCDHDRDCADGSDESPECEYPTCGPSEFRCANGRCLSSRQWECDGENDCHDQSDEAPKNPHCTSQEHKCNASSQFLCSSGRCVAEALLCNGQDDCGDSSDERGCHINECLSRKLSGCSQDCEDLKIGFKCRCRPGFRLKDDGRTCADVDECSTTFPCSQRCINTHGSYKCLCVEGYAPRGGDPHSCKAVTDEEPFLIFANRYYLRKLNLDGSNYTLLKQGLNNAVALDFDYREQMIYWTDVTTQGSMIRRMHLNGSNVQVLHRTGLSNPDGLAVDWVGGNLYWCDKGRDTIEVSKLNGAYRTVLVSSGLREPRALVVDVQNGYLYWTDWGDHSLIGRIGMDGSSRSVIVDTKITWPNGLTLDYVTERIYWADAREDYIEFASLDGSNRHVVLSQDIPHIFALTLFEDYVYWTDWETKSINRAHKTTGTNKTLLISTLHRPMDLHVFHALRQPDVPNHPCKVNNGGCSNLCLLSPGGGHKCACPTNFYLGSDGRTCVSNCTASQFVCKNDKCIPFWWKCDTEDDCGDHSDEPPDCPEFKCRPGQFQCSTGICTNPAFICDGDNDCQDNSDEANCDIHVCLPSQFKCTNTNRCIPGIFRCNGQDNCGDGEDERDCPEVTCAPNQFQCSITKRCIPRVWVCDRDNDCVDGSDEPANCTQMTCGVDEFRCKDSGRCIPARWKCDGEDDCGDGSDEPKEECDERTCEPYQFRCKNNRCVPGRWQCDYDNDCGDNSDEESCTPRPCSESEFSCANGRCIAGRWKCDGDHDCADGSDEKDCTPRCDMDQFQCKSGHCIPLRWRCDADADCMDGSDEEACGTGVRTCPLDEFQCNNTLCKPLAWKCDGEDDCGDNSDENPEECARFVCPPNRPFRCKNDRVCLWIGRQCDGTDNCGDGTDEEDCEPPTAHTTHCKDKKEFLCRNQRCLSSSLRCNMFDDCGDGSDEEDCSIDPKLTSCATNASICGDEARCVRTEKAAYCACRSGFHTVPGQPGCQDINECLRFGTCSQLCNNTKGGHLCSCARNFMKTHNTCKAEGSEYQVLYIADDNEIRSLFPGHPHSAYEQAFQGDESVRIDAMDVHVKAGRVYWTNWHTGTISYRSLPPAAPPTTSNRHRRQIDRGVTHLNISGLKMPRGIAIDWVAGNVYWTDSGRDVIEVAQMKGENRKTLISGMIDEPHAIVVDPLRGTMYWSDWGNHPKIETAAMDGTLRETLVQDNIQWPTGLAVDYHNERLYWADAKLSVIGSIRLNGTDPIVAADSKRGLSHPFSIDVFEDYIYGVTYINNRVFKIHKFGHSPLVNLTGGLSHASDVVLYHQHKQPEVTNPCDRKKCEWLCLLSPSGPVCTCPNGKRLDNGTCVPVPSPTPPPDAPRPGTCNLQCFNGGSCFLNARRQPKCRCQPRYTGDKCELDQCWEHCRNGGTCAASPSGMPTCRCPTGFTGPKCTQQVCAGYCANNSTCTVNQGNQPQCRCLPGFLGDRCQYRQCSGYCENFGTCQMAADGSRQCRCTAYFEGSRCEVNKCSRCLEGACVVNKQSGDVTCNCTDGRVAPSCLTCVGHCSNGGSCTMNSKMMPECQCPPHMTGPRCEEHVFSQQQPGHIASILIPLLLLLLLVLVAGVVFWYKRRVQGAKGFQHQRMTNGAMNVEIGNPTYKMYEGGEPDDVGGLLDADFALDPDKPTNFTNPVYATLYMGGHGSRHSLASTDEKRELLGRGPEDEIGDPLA

Molecule: FGF2 (from UniProt P09038)
- Kd (FGFR1 (Homo sapiens) [1]): 62 nM
- Kd (FGFR1 (Homo sapiens) [2]): 2.7 nM

Molecule: FGFR1 (from UniProt P11362)
- Kd (FGF2 (Homo sapiens) [3]): 2.7 nM
- Kd (FGF2 (Homo sapiens) [4]): 62 nM

Second part, the molecule after the results:

- Kd [5]: ~1.06 nM
B1: pro-heparanase-1 (protein)
chain: QDVVDLDFFTQEPLHLVSPSFLSVTIDANLATDPRFLILLGSPKLRTLARGLSPAYLRFGGTKTDFLIFDPKKESTFEERSYWQSQVNQDICKYGSIPPDVEEKLRLEWPYQEQLLLREHYQKKFKNSTYSRSSVDVLYTFANCSGLDLIFGLNALLRTADLQWNSSNAQLLLDYCSSKGYNISWELGNEPNSFLKKADIFINGSQLGEDFIQLHKLLRKSTFKNAKLYGPDVGQPRRKTAKMLKSFLKAGGEVIDSVTWHHYYLNGRTATKEDFLNPDVLDIFISSVQKVFQVVESTRPGKKVWLGETSSAYGGGAPLLSDTFAAGFMWLDKLGLSARMGIEVVMRQVFFGAGNYHLVDENFDPLPDYWLSLLFKKLVGTKVLMASVQGSKRRKLRVYLHCTNTDNPRYKEGDLTLYAINLHNVTKYLRLPYPFSNKQVDKYLLRPLGPHGLLSKSVQLNGLTLKMVDDQTLPPLMEKPLRPGSSLGLPAFSYSFFVIRNAKVAACI

- Kd [5]: ~0.05 nM
B2: pro-heparanase-1 (protein)
chain: QDVVDLDFFTQEPLHLVSPSFLSVTIDANLATDPRFLILLGSPKLRTLARGLSPAYLRFGGTKTDFLIFDPKKESTFEERSYWQSQVNQDICKYGSIPPDVEEKLRLEWPYQEQLLLREHYQKKFKNSTYSRSSVDVLYTFANCSGLDLIFGLNALLRTADLQWNSSNAQLLLDYCSSKGYNISWELGNEPNSFLKKADIFINGSQLGEDFIQLHKLLRKSTFKNAKLYGPDVGQPRRKTAKMLKSFLKAGGEVIDSVTWHHYYLNGRTATKEDFLNPDVLDIFISSVQKVFQVVESTRPGKKVWLGETSSAYGGGAPLLSDTFAAGFMWLDKLGLSARMGIEVVMRQVFFGAGNYHLVDENFDPLPDYWLSLLFKKLVGTKVLMASVQGSKRRKLRVYLHCTNTDNPRYKEGDLTLYAINLHNVTKYLRLPYPFSNKQVDKYLLRPLGPHGLLSKSVQLNGLTLKMVDDQTLPPLMEKPLRPGSSLGLPAFSYSFFVIRNAKVAACI
modifications: complex of LRP with heparan sulphate proteoglycans (HSPG)
